Experimental data from paper doi:10.1101/433532.

Target: recombinant CSN^ΔCSNAP complex (eight subunits, WT CSN5) (UniProt Q13098)
Assay: native MS

For “CSNAP, recombinant subunit co-expressed in the CSN complex (natural protein)”, the stoichiometry N was 1.
